The results in this text go back to patent publication US20220119553A1 (Sanofi, published 2022).

To fix the notation:
T1: recombinant human IL4 (human, UniProt P05112 25-153)
T1 sequence (looked up): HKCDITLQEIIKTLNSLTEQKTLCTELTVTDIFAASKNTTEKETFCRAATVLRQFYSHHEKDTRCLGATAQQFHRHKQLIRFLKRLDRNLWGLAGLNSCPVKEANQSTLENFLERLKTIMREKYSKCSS

T2: human CD19 (ELISA antigen) (human, UniProt P15391 20-291, limits assumed)
T2 sequence (looked up): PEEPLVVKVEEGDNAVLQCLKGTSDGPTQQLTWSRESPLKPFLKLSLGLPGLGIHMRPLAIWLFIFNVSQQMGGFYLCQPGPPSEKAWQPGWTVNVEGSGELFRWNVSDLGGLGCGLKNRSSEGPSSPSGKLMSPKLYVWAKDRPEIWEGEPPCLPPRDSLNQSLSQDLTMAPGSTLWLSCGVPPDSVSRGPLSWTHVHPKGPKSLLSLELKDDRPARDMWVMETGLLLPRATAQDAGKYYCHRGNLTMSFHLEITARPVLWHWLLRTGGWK

B1: Binding Protein 16 (bispecific antibody, human IgG1, kappa, lambda)
heavy 1: not shown
light 1: DIVLTQSPASLAVSLGQRATISCRASESVDSYGQSYMHWYQQKAGQPPKLLIYLASNLESGVPARFSGSGSRTDFTLTIDPVQAEDAATYYCQQNAEDSRTFGGGTKLEIKGQPKAAPSVTLFPPSSEELQANKATLVCLISDFYPGAVTVAWKADSSPVKAGVETTTPSKQSNNKYAASSYLSLTPEQWKSHRSYSCQVTHEGSTVEKTVAPTECS
heavy 2: not shown
light 2: not shown
notes: Bispecific trivalent (CODV-Fab) × Fab-IgG1 Fc; two IL13 sites, one IL4 site; also called IL13 × (IL13 × IL4); (anti-IL13 × anti-IL4) × anti-IL13
B2: Binding Protein 18 (bispecific antibody, human IgG1, kappa, lambda)
heavy 1: not shown
light 1: B1 light 1
heavy 2: not shown
light 2: not shown
notes: Bispecific trivalent (CODV-Fab) × Fab-IgG1 Fc; two IL13 sites, one IL4 site; also called IL13 × (IL4 × IL13); (anti-IL4 × anti-IL13) × anti-IL13
B3: Binding Protein 17 (bispecific antibody, human IgG1, kappa, lambda)
heavy 1: not shown
light 1: DIQMTQSPASLSVSVGDTITLTCHASQNIDVWLSWFQQKPGNIPKLLIYKASNLHTGVPSRFSGSGSGTGFTLTISSLQPEDIATYYCQQAHSYPFTFGGGTKLEIKGQPKAAPSVTLFPPSSEELQANKATLVCLISDFYPGAVTVAWKADSSPVKAGVETTTPSKQSNNKYAASSYLSLTPEQWKSHRSYSCQVTHEGSTVEKTVAPTECS
heavy 2: not shown
light 2: not shown
notes: Bispecific trivalent (CODV-Fab) × Fab-IgG1 Fc; two IL4 sites, one IL13 site; also called IL4 × (IL13 × IL4); (anti-IL13 × anti-IL4) × anti-IL4
B4: Binding Protein 19 (bispecific antibody, human IgG1, kappa, lambda)
heavy 1: not shown
light 1: B3 light 1
heavy 2: not shown
light 2: not shown
notes: Bispecific trivalent (CODV-Fab) × Fab-IgG1 Fc; two IL4 sites, one IL13 site; also called IL4 × (IL4 × IL13); (anti-IL4 × anti-IL13) × anti-IL4
B5: Binding Protein 5 (other)
heavy 1: QVQLVQSGAEVAKPGTSVKLSCKASGYTFTDYWMQWVKQRPGQGLEWIGTIYPGDGDTGYAQKFQGKATLTADKSSKTVYMHLSSLASEDSAVYYCARGDYYGSNSLDYWGQGTSVTVSSASTKGPSVFPLAPCSRSTSESTAALGCLVKDYFPEPVTVSWNSGALTSGVHTFPAVLQSSGLYSLSSVVTVPSSSLGTKTYTCNVDHKPSNTKVDKRVESKYGPPCPPCPAPEFLGGPSVFLFPPKPKDTLMISRTPEVTCVVVDVSQEDPEVQFNWYVDGVEVHNAKTKPREEQFNSTYRVVSVLTVLHQDWLNGKEYKCKVSNKGLPSSIEKTISKAKGQPREPQVYTLPPCQEEMTKNQVSLWCLVKGFYPSDIAVEWESNGQPENNYKTTPPVLDSDGSFFLYSKLTVDKSRWQEGNVFSCSVMHEALHNHYTQKSLSLSLGK
light 1: DIVMTQSHLSMSTSLGDPVSITCKASQDVSTVVAWYQQKPGQSPRRLIYSASYRYIGVPDRFTGSGAGTDFTFTISSVQAEDLAVYYCQQHYSPPYTFGGGTKLEIKRTVAAPSVFIFPPSDEQLKSGTASVVCLLNNFYPREAKVQWKVDNALQSGNSQESVTEQDSKDSTYSLSSTLTLSKADYEKHKVYACEVTHQGLSSPVTKSFNRGEC
heavy 2: QVQLVQSGAEVVKPGASVKVSCKASGYTFTSYYIHWVRQAPGQGLEWIGSIYPGNVNTNYAQKFQGRATLTVDTSISTAYMELSRLRSDDTAVYYCTRSHYGLDWNFDVWGKGTTVTVSSSQVQLVESGGGVVQPGRSLRLSCAASGFTFTKAWMHWVRQAPGKQLEWVAQIKDKSNSYATYYADSVKGRFTISRDDSKNTLYLQMNSLRAEDTAVYYCRGVYYALSPFDYWGQGTLVTVSSRTASTKGPSVFPLAPCSRSTSESTAALGCLVKDYFPEPVTVSWNSGALTSGVHTFPAVLQSSGLYSLSSVVTVPSSSLGTKTYTCNVDHKPSNTKVDKRVESKYGPPCPPCPAPEFLGGPSVFLFPPKPKDTLMISRTPEVTCVVVDVSQEDPEVQFNWYVDGVEVHNAKTKPREEQFNSTYRVVSVLTVLHQDWLNGKEYKCKVSNKGLPSSIEKTISKAKGQPREPQVCTLPPSQEEMTKNQVSLSCAVKGFYPSDIAVEWESNGQPENNYKTTPPVLDSDGSFFLVSKLTVDKSRWQEGNVFSCSVMHEALHNHYTQKSLSLSLGK
light 2: DIVMTQTPLSLSVTPGQPASISCKSSQSLVHNNANTYLSWYLQKPGQSPQSLIYKVSNRFSGVPDRFSGSGSGTDFTLKISRVEAEDVGVYYCGQGTQYPFTFGSGTKVEIKGQPKAAPDIQMTQSPSSLSASVGDRVTITCQASQNIYVWLNWYQQKPGKAPKLLIYKASNLHTGVPSRFSGSGSGTDFTLTISSLQPEDIATYYCQQGQTYPYTFGQGTKLEIKTKGPSRTVAAPSVFIFPPSDEQLKSGTASVVCLLNNFYPREAKVQWKVDNALQSGNSQESVTEQDSKDSTYSLSSTLTLSKADYEKHKVYACEVTHQGLSSPVTKSFNRGEC
B6: Binding Protein 3 (other)
heavy 1: QVQLVQSGAEVKKPGSSVKVSCKASGYAFSSYWMNWVRQAPGQGLEWIGQIWPGDGDTNYNQKFKGRATLTADESTSTAYMELSSLRSEDTAVYYCARRETTTVGRYYYAMDYWGQGTTVTVSSASTKGPSVFPLAPCSRSTSESTAALGCLVKDYFPEPVTVSWNSGALTSGVHTFPAVLQSSGLYSLSSVVTVPSSSLGTKTYTCNVDHKPSNTKVDKRVESKYGPPCPPCPAPEFLGGPSVFLFPPKPKDTLMISRTPEVTCVVVDVSQEDPEVQFNWYVDGVEVHNAKTKPREEQFNSTYRVVSVLTVLHQDWLNGKEYKCKVSNKGLPSSIEKTISKAKGQPREPQVYTLPPCQEEMTKNQVSLWCLVKGFYPSDIAVEWESNGQPENNYKTTPPVLDSDGSFFLYSKLTVDKSRWQEGNVFSCSVMHEALHNHYTQKSLSLSLGK
light 1: DLVLTQSPASLAVSPGQRATITCKASQSVDYDGDSYLNWYQQKPGQPPKLLIYDASNLVSGVPARFSGSGSGTDFTLTINPVEANDTANYYCQQSTEDPWTFGQGTKLEIKRTVAAPSVFIFPPSDEQLKSGTASVVCLLNNFYPREAKVQWKVDNALQSGNSQESVTEQDSKDSTYSLSSTLTLSKADYEKHKVYACEVTHQGLSSPVTKSFNRGEC
heavy 2: B5 heavy 2
light 2: B5 light 2
notes: Trispecific antibody of four chains, IgG4: anti-CD19 Fab arm (knob) and CODV arm anti-CD28 x anti-CD3 (hole); also called anti-CD19×CD28×CD3 IgG4 trispecific antibody; CD19 × (CD28 × CD3)

One assay concerns the target T1, recombinant human IL4. Briefly: cell-based or functional assay.
For B1, the “IL4 IC50 (HEK Blue reporter assay)” value stood at 0.013 µg/mL.

For B2, the “IL4 IC50 (HEK Blue reporter assay)” value turned out to be 0.0146 µg/mL.

In the case of B3, the “IL4 IC50 (HEK Blue reporter assay)” value came out at 0.00862 µg/mL.

As for B4, the “IL4 IC50 (HEK Blue reporter assay)” value worked out at 0.00573 µg/mL.

The target in another assay is CD38 on human multiple myeloma cells (human, UniProt P28907 1-300). The assay is described as follows: cell-based or functional assay.
Regarding B5, the “EC50 (pM), antibody-mediated cell killing of RPMI8226 cells” value turned out to be 0.379 pM.

A further assay addresses T1, recombinant human IL4. The assay is described as follows: SPR (BIACORE 3000), antibody captured, human IL4 as analyte. Background: Surface plasmon resonance follows binding to a sensor surface in real time, without labels.
B1: the Kd was determined as 5.88 pM, the “No. of ILs Bound” value is 1, the “kDa Bound” value is 17 kDa and the koff was determined as 0.00028 s⁻¹. The kon was found to be 4.77e+07 M⁻¹ s⁻¹.

Take B2: the Kd is 10.2 pM, the “No. of ILs Bound” value was 1, the “kDa Bound” value amounted to 18 kDa and the koff was 0.000359 s⁻¹. The kon is 3.52e+07 M⁻¹ s⁻¹.

For B3, the Kd came out at 2.4 pM, the “No. of ILs Bound” value is 2, the “kDa Bound” value stood at 35 kDa and the koff was determined as 0.00076 s⁻¹. The kon was determined as 3.16e+08 M⁻¹ s⁻¹.

On to B4, for which the Kd is 4.65 pM, the “No. of ILs Bound” value was 2, the “kDa Bound” value was 34 kDa and the koff amounted to 0.000385 s⁻¹. Further, the kon was found to be 8.27e+07 M⁻¹ s⁻¹.

For a further assay, the target named is T2, human CD19 (ELISA antigen). Briefly: ELISA on coated antigen, detection with HRP-conjugated anti-Fab secondary antibody, OD450. A general note: In an ELISA, binding on a coated surface is turned into a signal by an enzyme label.
Experimental: The coated plate was blocked using 5% skim milk+2% BSA in PBS for one hour at RT, followed by washing with PBS+0.25% Tween 20 three times (Aqua Max 400, Molecular Devices). Serial dilution of antibodies (trispecific and control Abs) were prepared and added onto the ELISA plates (100 μl/well in duplicate), incubated at RT for one hour, followed by washing 5 times with PBS+0.25% Tween 20.
The reaction was terminated by adding 50 μl 1M H₂SO₄, and OD₄₅₀ was measured using SpectraMax M5 (Molecular Devices) and analyzed using SoftMax Pro6.3 software (Molecular Devices). […] EC50 was calculated using the same software.
Consider B6, for which the binding result is given as “binds”.

In general, Kd refers to the equilibrium constant for the complex coming apart. The koff is a measure of how fast the partners let go of each other. A word on the kon: it is a measure of how fast the partners come together.
